Here are results for 20 substances from patent US20230135471A1, “UBIQUITIN VARIANTS WITH IMPROVED AFFINITY FOR 53BP1” (Integrated DNA Technologies, Inc., priority 2021, published 2023).

In this assay the target is 53BP1 fragment (a.a. 1221-1718) fused to an adenylate cyclase fragment (two-hybrid) (UniProt Q12888). The assay is described as follows: cell-based or functional assay.
For the substance “i53 + S57N two-hybrid fusion (designed binder)”, the Experiment 1 Average Enrichment is 1.34 log2, the Experiment 1 Rep 1 Enrichment was 1.72 log2, the Experiment 1 Rep 2 Enrichment was determined as 0.96 log2 and the Experiment 2 Average Enrichment came out at 0.69 log2. Besides, the Experiment 2 Rep 1 Enrichment amounted to 0.82 log2 and the Experiment 2 Rep 2 Enrichment is 0.56 log2.

“i53 + S57Q two-hybrid fusion (designed binder)” displayed an Experiment 1 Average Enrichment of 0.07 log2, an Experiment 1 Rep 1 Enrichment of 0.07 log2, an Experiment 1 Rep 2 Enrichment of 0.07 log2 and an Experiment 2 Average Enrichment of 0.14 log2. This substance also returned an Experiment 2 Rep 1 Enrichment of 0.27 log2 and an Experiment 2 Rep 2 Enrichment of 0.01 log2.

For “i53 + S57R two-hybrid fusion (designed binder)”, the Experiment 1 Average Enrichment amounted to 0.02 log2, the Experiment 1 Rep 1 Enrichment stood at 0.05 log2, the Experiment 1 Rep 2 Enrichment was -0.01 log2 and the Experiment 2 Average Enrichment is -0.18 log2. Further, the Experiment 2 Rep 1 Enrichment is -0.32 log2 and the Experiment 2 Rep 2 Enrichment was -0.03 log2.

“i53 + S65A two-hybrid fusion (designed binder)”: the Experiment 1 Average Enrichment turned out to be 1.15 log2, the Experiment 1 Rep 1 Enrichment was found to be 1.29 log2, the Experiment 1 Rep 2 Enrichment was 1.01 log2 and the Experiment 2 Average Enrichment came out at 0.95 log2. The same substance showed an Experiment 2 Rep 1 Enrichment of 1.17 log2 and an Experiment 2 Rep 2 Enrichment of 0.73 log2.

The substance “i53 + S65D two-hybrid fusion (designed binder)” showed an Experiment 1 Average Enrichment of 0.36 log2, an Experiment 1 Rep 1 Enrichment of 0.02 log2, an Experiment 1 Rep 2 Enrichment of 0.7 log2 and an Experiment 2 Average Enrichment of 0.85 log2. The Experiment 2 Rep 1 Enrichment was determined as 0.61 log2 and the Experiment 2 Rep 2 Enrichment is 1.1 log2.

In turn, “i53 + S65E two-hybrid fusion (designed binder)” came in with an Experiment 1 Average Enrichment of 1.54 log2, an Experiment 1 Rep 1 Enrichment of 1.29 log2, an Experiment 1 Rep 2 Enrichment of 1.79 log2 and an Experiment 2 Average Enrichment of 0.8 log2. The substance also showed an Experiment 2 Rep 1 Enrichment of 0.74 log2 and an Experiment 2 Rep 2 Enrichment of 0.85 log2.

As to “i53 + S65H two-hybrid fusion (designed binder)”, the Experiment 1 Average Enrichment turned out to be 1.1 log2, the Experiment 1 Rep 1 Enrichment was found to be 0.69 log2, the Experiment 1 Rep 2 Enrichment is 1.5 log2 and the Experiment 2 Average Enrichment was determined as 1.16 log2. Besides, the Experiment 2 Rep 1 Enrichment was found to be 1.34 log2 and the Experiment 2 Rep 2 Enrichment was 0.98 log2.

In turn, “i53 + S65K two-hybrid fusion (designed binder)” came in with an Experiment 1 Average Enrichment of 1.65 log2, an Experiment 1 Rep 1 Enrichment of 1.61 log2, an Experiment 1 Rep 2 Enrichment of 1.69 log2 and an Experiment 2 Average Enrichment of 0.63 log2. The same substance had an Experiment 2 Rep 1 Enrichment of 0.74 log2 and an Experiment 2 Rep 2 Enrichment of 0.53 log2.

In the case of “i53 + S65N two-hybrid fusion (designed binder)”, the Experiment 1 Average Enrichment was found to be 0.38 log2, the Experiment 1 Rep 1 Enrichment came out at 0.04 log2, the Experiment 1 Rep 2 Enrichment came to 0.71 log2 and the Experiment 2 Average Enrichment turned out to be 0.34 log2. The substance further gave an Experiment 2 Rep 1 Enrichment of 0.71 log2 and an Experiment 2 Rep 2 Enrichment of -0.04 log2.

“i53 + S65Q two-hybrid fusion (designed binder)” gave an Experiment 1 Average Enrichment of 0 log2, an Experiment 1 Rep 1 Enrichment of -0.02 log2, an Experiment 1 Rep 2 Enrichment of 0.02 log2 and an Experiment 2 Average Enrichment of 0.12 log2. The substance also showed an Experiment 2 Rep 1 Enrichment of 0.01 log2 and an Experiment 2 Rep 2 Enrichment of 0.24 log2.

As to “i53 + S65R two-hybrid fusion (designed binder)”, the Experiment 1 Average Enrichment is 1.14 log2, the Experiment 1 Rep 1 Enrichment was 1.15 log2, the Experiment 1 Rep 2 Enrichment was 1.13 log2 and the Experiment 2 Average Enrichment is 1.1 log2. In addition, the Experiment 2 Rep 1 Enrichment is 1.48 log2 and the Experiment 2 Rep 2 Enrichment came to 0.72 log2.

Consider “i53 + T7C two-hybrid fusion (designed binder)”, for which the Experiment 1 Average Enrichment worked out at 1.2 log2, the Experiment 1 Rep 1 Enrichment stood at 1.16 log2, the Experiment 1 Rep 2 Enrichment was 1.23 log2 and the Experiment 2 Average Enrichment was 0.79 log2. This substance also gave an Experiment 2 Rep 1 Enrichment of 0.9 log2 and an Experiment 2 Rep 2 Enrichment of 0.69 log2.

“i53 + T7I two-hybrid fusion (designed binder)” gave an Experiment 1 Average Enrichment of 1.66 log2, an Experiment 1 Rep 1 Enrichment of 1.7 log2, an Experiment 1 Rep 2 Enrichment of 1.63 log2 and an Experiment 2 Average Enrichment of 1.03 log2. Besides, the Experiment 2 Rep 1 Enrichment came out at 1.04 log2 and the Experiment 2 Rep 2 Enrichment was determined as 1.02 log2.

“i53 + T7L two-hybrid fusion (designed binder)” gave an Experiment 1 Average Enrichment of 0.61 log2, an Experiment 1 Rep 1 Enrichment of 0.62 log2, an Experiment 1 Rep 2 Enrichment of 0.61 log2 and an Experiment 2 Average Enrichment of -0.19 log2. The substance further returned an Experiment 2 Rep 1 Enrichment of -0.07 log2 and an Experiment 2 Rep 2 Enrichment of -0.31 log2.

In turn, “i53 + T7V two-hybrid fusion (designed binder)” registered an Experiment 1 Average Enrichment of 0.33 log2, an Experiment 1 Rep 1 Enrichment of 0.24 log2, an Experiment 1 Rep 2 Enrichment of 0.42 log2 and an Experiment 2 Average Enrichment of 0.02 log2. For the same substance, the Experiment 2 Rep 1 Enrichment was -0.04 log2 and the Experiment 2 Rep 2 Enrichment is 0.09 log2.

“i53 + T9E two-hybrid fusion (designed binder)” showed an Experiment 1 Average Enrichment of -0.04 log2, an Experiment 1 Rep 1 Enrichment of 0.37 log2, an Experiment 1 Rep 2 Enrichment of -0.44 log2 and an Experiment 2 Average Enrichment of 0.33 log2. The Experiment 2 Rep 1 Enrichment was 0.02 log2 and the Experiment 2 Rep 2 Enrichment came out at 0.63 log2.

Consider “i53 + T9I two-hybrid fusion (designed binder)”, for which the Experiment 1 Average Enrichment worked out at 0.46 log2, the Experiment 1 Rep 1 Enrichment came to 0.3 log2, the Experiment 1 Rep 2 Enrichment amounted to 0.61 log2 and the Experiment 2 Average Enrichment came out at 0.25 log2. For the same substance, the Experiment 2 Rep 1 Enrichment was -0.01 log2 and the Experiment 2 Rep 2 Enrichment stood at 0.52 log2.

Turning to “i53 + T9S two-hybrid fusion (designed binder)”, the Experiment 1 Average Enrichment was found to be 0.4 log2, the Experiment 1 Rep 1 Enrichment was 0.34 log2, the Experiment 1 Rep 2 Enrichment was 0.47 log2 and the Experiment 2 Average Enrichment was 0.18 log2. This substance had an Experiment 2 Rep 1 Enrichment of 0.19 log2 and an Experiment 2 Rep 2 Enrichment of 0.17 log2.

With “i53 + T9V two-hybrid fusion (designed binder)”, the Experiment 1 Average Enrichment was 0.06 log2, the Experiment 1 Rep 1 Enrichment was 0.32 log2, the Experiment 1 Rep 2 Enrichment is -0.21 log2 and the Experiment 2 Average Enrichment is -0.15 log2. In addition, the Experiment 2 Rep 1 Enrichment was -0.36 log2 and the Experiment 2 Rep 2 Enrichment amounted to 0.06 log2.

With “i53 + T12Y two-hybrid fusion (designed binder)”, the Experiment 1 Average Enrichment is 0.25 log2, the Experiment 1 Rep 1 Enrichment came to 0.14 log2, the Experiment 1 Rep 2 Enrichment was found to be 0.36 log2 and the Experiment 2 Average Enrichment amounted to 0.35 log2. The same substance displayed an Experiment 2 Rep 1 Enrichment of 0.52 log2 and an Experiment 2 Rep 2 Enrichment of 0.17 log2.
